Assay results taken from patent publication US20240239892A1 (SUZHOU KANOVA BIOPHARMACEUTICAL, published 2024).
Changes are numbered by the printed parent chain.

B1: VH6 + VL1 (antibody, human IgG1, kappa, V domains shown)
VH: EVQLVESGGGLVQPGGSLRLSCAASGFTFSSYGMSWVRQAPGKRLEWVAIISGGGRDIYYLDSVKGRFTISRDNSKNTLYLQMNSLRAEDTAVYYCSSPIYDAYSFAYWGQGTLVTVSS
VL: EIVMTQSPATLSVSPGERATLSCRASQTISNNLHWYQQKPGQAPRLLIYYASQSISGIPARFSGSGSGTEFTLTISSLQSEDFAVYYCQQSYSWPLTFGGGTKLEIKR
notes: Humanized full-length IgG expressed in HEK293; For SPR it was captured from culture medium through its Fc; also called HC1 + LC1
B2: anti-PD-1 antibody VH7+VL6 (antibody, human IgG1, kappa, V domains shown)
VH: B1 VH with R44G, T78N
VL: B1 VL with M4L, Q37H, Y49K, A60S, E70D, Y87F
notes: also called HC2 + LC2
B3: VH7 + VL1 (antibody, human IgG1, kappa, V domains shown)
VH: B1 VH with R44G, T78N
VL: B1 VL
notes: Humanized full-length IgG expressed in HEK293; also called HC2 + LC1
B4: VH6 + VL6 (antibody, human IgG1, kappa, V domains shown)
VH: B1 VH
VL: B1 VL with M4L, Q37H, Y49K, A60S, E70D, Y87F
notes: Humanized full-length IgG expressed in HEK293; also called HC1 + LC2
B5: Chimeric VH + VL (antibody, human IgG1, kappa, V domains shown)
VH: EVKLVESGGGLVKPGGSLKLSCAASGFTFSSYGMSWVRQTPEKRLEWVAIISGGGRDIYYLDSVKGRFTISRDNAKNNLYLQMSSLRSEDTAFYYCSSPIYDAYSFAYWGQGTLVTVSA
VL: DIVLVQSPATLSVTPGDSVSLSCRASQTISNNLHWYHQKSHESPRLLIKYASQSISGIPSRFSGSGSGTDFTLSINSVETEDFGMYFCQQSYSWPLTFGAGTNLELKR
notes: also called Parental mouse VH+VL combined with human Fc; parental antibody

Assays:
[1] = target: T1, PD-1 (analyte of the SPR assay of Example 3) (human, UniProt Q15116 21-167, limits assumed); experiment: SPR (Biacore 8K), antibody captured by anti-human Fc, PD-1 as analyte
T1 construct: also called human PD-1
T1 sequence (Q15116 21-167 limits assumed): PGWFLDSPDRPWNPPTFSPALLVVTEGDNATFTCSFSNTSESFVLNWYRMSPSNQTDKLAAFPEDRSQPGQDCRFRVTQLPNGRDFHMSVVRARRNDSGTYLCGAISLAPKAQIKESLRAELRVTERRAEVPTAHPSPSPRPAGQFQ
Experimental: Anti-human Fc gamma specific antibody (Jackson ImmunoResearch #109-005-098) was immobilized onto the sensor chip using amine coupling method. […] After equilibration, PD-1 was injected for 200 seconds (association phase) followed by the injection of running buffer for 600s (dissociation phase). Responses of reference flow cell (flow cell 1) were subtracted from those of humanized antibodies flow cells during each cycle. The surface was regenerated before the injection of other humanized antibodies. The process was repeated until all antibodies are analyzed. The off-rates of humanized antibodies were obtained from fitting the experimental data locally to 1:1 interaction model using the Biacore 8K evaluation software. The antibodies were ranked by their dissociation rate constants (off-rates, kd).

[2] = target: T2, chimeric PD-1 receptor on Jurkat cells (Jurkat/PD-1-CD3z/NF-luci cells) (human, UniProt Q15116 25-191; P20963 52-164, limits assumed); experiment: cell-based or functional assay
T2 sequence (Q15116 other isoform, or with tags, fused parts or gaps mutant limits assumed): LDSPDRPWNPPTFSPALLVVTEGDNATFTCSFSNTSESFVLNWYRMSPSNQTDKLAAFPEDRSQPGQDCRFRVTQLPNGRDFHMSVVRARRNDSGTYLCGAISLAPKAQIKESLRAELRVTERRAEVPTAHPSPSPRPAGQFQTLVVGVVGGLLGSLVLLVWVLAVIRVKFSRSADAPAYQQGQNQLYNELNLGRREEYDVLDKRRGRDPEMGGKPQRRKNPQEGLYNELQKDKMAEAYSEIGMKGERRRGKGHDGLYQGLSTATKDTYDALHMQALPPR

[3] = target: T3, cynomolgus PD-1/His protein (ACROBiosystems #PD1-C5223) (cynomolgus, UniProt B0LAJ3 25-170); experiment: ELISA, plate coated with cynomolgus PD-1/His
T3 construct: Commercial protein
T3 sequence (B0LAJ3 entry or part of it limits assumed): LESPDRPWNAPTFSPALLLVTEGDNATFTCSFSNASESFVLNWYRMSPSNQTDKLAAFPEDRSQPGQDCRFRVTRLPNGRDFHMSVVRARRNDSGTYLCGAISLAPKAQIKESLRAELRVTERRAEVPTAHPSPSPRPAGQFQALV
Experimental: (§1) MaxiSorp 96-well plates (NUNC #449824) were coated with 2 μg/mL human PD-1/His (in-house production) or cynomolgus PD-1/His protein (ACROBiosystems #PD1-C5223) in 1× PBS (50 μL/well). Plates were incubated at 4° C. overnight. Coating solution was removed and plates were washed once with 200 μL/well PBST (1× PBS containing 0.05% tween-20). Then 200 μL/well blocking buffer (1× PBS with 0.05% tween-20, 3% BSA) was added and incubated at room temperature for 1 hour. Blocking buffer was removed and plates were washed with three times with 200 μL/well PBST. […] Plates were incubated at room temperature for 2 hours. Antibodies in the wells were removed and plates were washed three times with 200 μL/well PBST. Goat anti-human IgG (H&L)-HRP secondary antibody (Jackson Immuno Research #109-035-088) was diluted 1:5000 in 1× PBS and added to each well (50 μL/well). Plates were incubated at room temperature for 1 hour. Secondary antibody was removed and plates were washed five times with 200 μL/well PBST. 50 μL/well TMB (eBioscience #85-00-4201-56) was added and plates were incubated at room temperature for several minutes. Then 50 μL/well 2N H2SO4 was added to stop the reaction. Optical density was measured at 450 nm.

[4] = target: T2, chimeric PD-1 receptor on Jurkat cells …; experiment: flow cytometry on human PD-1-expressing Jurkat cells
Experimental: Then cells were washed once by FACS buffer (PBS with 2% FBS) and incubated with Alexa Fluor 594 AffiniPure Goat Anti-human IgG secondary antibody (Jackson ImmunoResearch #109-585-088) at 4° C. for 30 minutes. After washed once by FACS buffer, cells were resuspended in 200 μL FACS buffer. The cells after staining were analyzed by BD LSRFortessa Flow Cytometer.

[5] = target: T4, his-tagged human PD-1 recombinant protein (PD-1/6His, in-house production, extracellular domain Pro21-Gln167) (human, UniProt Q15116 21-167); experiment: ELISA, plate coated with human PD-1/His; human PD-1
T4 construct: range 21-167; also called human PD-1/His; not shown: 6His tag
T4 sequence (Q15116 21-167 limits assumed): as the sequence (Q15116 21-167 limits assumed) above
Experimental: as §1

Row | Binder | Kd [1] | koff [1] | kon [1] | EC50 (nM), inhibition of luciferase signal [2] | EC50 [3] | EC50 [4] | EC50 [5]
1 | B1 | 3.57 nM | 0.000404 s⁻¹ | 113000 M⁻¹ s⁻¹ |  |  |  | 
2 | B2 | 1.41 nM | 0.000218 s⁻¹ | 154000 M⁻¹ s⁻¹ | 0.38 nM | 0.4 nM | 2.16 nM | 0.1 nM
3 | B3 | 3.04 nM | 0.000317 s⁻¹ | 104000 M⁻¹ s⁻¹ |  |  |  | 
4 | B4 | 0.812 nM | 0.000127 s⁻¹ | 156000 M⁻¹ s⁻¹ |  |  |  | 
5 | B5 | 0.787 nM | 0.000163 s⁻¹ | 207000 M⁻¹ s⁻¹ |  |  |  | 
